Results on 2 substances are retold here after paper PMC9340540.

In experiment [1] the target is CHN-1 (C. elegans). Briefly: SEC; S200 Superdex column; CHN-1 alone, UFD-2 alone and CHN-1 + UFD-2 mixed in equal molar ratios.
Experiment [2] has as its target CHN-1 (C. elegans).
Target sequence in this assay (main, as listed by the source): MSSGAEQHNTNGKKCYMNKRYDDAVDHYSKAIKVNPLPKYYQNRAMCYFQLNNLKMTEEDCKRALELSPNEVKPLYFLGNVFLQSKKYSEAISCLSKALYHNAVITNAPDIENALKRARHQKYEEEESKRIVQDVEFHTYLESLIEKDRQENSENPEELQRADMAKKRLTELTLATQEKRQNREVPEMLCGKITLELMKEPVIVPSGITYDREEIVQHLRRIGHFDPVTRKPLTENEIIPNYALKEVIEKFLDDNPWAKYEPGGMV

Chain of UFD-2 (Q09349 whole entry): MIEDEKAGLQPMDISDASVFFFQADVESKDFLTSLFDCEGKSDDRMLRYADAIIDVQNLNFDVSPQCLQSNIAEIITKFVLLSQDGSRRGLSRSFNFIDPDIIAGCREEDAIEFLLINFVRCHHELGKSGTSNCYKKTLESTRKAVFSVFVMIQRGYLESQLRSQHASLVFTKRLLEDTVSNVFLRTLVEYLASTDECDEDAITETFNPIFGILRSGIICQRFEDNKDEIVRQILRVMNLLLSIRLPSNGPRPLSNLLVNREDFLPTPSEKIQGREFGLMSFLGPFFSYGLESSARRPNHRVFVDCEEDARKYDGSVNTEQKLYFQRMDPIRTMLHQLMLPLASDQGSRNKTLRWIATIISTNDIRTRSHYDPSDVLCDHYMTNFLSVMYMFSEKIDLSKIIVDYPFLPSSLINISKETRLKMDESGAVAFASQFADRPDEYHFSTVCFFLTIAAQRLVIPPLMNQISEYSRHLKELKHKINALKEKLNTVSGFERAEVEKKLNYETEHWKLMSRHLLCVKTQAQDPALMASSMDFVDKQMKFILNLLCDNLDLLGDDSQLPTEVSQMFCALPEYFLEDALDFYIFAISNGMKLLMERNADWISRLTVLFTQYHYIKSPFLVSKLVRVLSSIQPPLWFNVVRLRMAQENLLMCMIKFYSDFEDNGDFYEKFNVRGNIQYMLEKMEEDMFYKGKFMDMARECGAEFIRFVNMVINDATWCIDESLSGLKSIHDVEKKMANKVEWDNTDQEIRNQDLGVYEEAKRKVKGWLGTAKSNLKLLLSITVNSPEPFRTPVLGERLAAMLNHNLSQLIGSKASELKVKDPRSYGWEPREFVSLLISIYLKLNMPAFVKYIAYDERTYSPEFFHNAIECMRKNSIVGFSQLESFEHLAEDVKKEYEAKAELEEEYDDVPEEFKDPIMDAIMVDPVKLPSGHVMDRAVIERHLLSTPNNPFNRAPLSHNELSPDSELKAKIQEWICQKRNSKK

CHN-1 (enzyme): in experiment [1], the stoichiometry N came to 2. As for “UFD-2 (from UniProt Q09349 1-984) (enzyme)”, in experiment [2], the CHN-1 auto-ubiquitylation (UBE2D1); UFD-2 titrated at 0.3, 0.65 and 1.3 μM against 1.3 μM CHN-1 amounted to 2 fold.

For orientation: stoichiometry N means the number of molecules, sites or subunits per partner or assembly.
